Reference: paper PMC11004729

What was measured:
[1] = target: T1, FXR1 (GST-FXR1) (Homo sapiens, UniProt P51114 1-621); experiment: competition EMSA
[2] = target: T1, FXR1 (GST-FXR1); experiment: EMSA
[3] = target: HuR (GST-HuR) (UniProt Q15717 1-326); experiment: EMSA
[4] = target: T1, FXR1 (GST-FXR1); experiment: EMSA; remark: listed apart in the source

T1 sequence (P51114 whole entry): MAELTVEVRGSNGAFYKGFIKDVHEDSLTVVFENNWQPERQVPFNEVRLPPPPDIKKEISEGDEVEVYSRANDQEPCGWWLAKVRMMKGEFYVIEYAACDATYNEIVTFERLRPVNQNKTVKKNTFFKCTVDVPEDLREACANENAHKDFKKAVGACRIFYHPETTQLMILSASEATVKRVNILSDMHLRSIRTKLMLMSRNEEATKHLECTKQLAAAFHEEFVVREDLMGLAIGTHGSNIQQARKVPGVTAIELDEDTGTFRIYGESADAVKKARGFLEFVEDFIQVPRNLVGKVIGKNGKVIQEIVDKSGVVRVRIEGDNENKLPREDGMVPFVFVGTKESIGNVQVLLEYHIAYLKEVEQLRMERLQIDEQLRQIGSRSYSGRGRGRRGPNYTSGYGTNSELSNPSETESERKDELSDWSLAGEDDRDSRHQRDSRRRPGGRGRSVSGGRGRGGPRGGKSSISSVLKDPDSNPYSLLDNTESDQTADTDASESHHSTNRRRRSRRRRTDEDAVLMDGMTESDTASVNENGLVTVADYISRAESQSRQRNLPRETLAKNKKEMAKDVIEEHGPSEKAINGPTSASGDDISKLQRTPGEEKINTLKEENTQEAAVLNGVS
Sequence of HuR (GST-HuR) (Q15717 whole entry): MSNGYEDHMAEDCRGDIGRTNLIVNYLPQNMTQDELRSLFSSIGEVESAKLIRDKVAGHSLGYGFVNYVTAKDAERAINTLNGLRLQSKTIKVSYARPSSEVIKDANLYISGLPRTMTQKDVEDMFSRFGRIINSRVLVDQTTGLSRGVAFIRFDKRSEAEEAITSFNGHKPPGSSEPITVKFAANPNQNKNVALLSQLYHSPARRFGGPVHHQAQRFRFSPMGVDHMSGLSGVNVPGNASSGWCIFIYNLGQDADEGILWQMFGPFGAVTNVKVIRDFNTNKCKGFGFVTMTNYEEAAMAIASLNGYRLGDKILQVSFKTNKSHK

AUUUAAUUUAAUUUAAUUUAAUUUA (ssRNA) [(AUUUA)5 (probe B)]
binding result [1]: binds

CUUGUGAUUAUUUAUUAUUUAUUUAUUAUUUAUUUAUUUACAGAGAUGAA (ssRNA) [TNFα 3'UTR 50-mer (probe A)]
binding result [2]: binds
binding result [3]: binds

UUAUUUAUUUUAUUUAUUUUAUUUAUU (ssRNA) [(UUAUUUAUU)3 (probe C)]
binding result [1]: binds

AUUUA (ssRNA) [AUUUA monomer]
binding result [4]: no binding
